Measurements: publication PMC11162469, “Discovery of RXFP2 genetic association in resistant hypertensive men and RXFP2 antagonists for the treatment of resistant hypertension” (Scientific Reports, 2024)

Target: RXFP2 mAb 2H3 (rat)
Experiment: SPR; Biacore S200; goat anti-rat Fc gamma immobilised on a Series S CM5 chip, purified recombinant rat anti-RXFP2 antibodies captured at 5 µg/mL; rat or human LDLa-linker protein flowed as analyte at 20, 10, 5, 2.5, 1.75 and 0 nM; 1:1 fit model

Kd: 582 nM
B1: rat LDLa-linker protein (ratRXFP2-LDLa-linker(20-88)) (domain or fragment)
chain: GSNMVAPLCPKGYFPCGNLTKCLPRAFHCDGVDDCGNGADEDNCGDTSGWTTIFGTVHGNVNKVTLTEE
